The values that follow come from article PMC12072577, “Structure and Inhibition of the Human Na^+/H^+ Exchanger SLC9B2” (International Journal of Molecular Sciences, 2025).

Data set [1] deals with the molecule itself. Description: cryo-EM structure; human NHA2∆N-Fab complex in MSP1E2 nanodiscs with yeast PI lipids; apo and with 1 mM phloretin.
The target in data set [2] is T1, bison NHA2ΔN reconstituted into biotinylated proteoliposomes (bison, UniProt A0A6P3HVI0).
T1 construct: Sodium/proton exchanger NHA2 (SLC9B2) of bison, N-terminally truncated (ΔN); The biotin is on a lipid of the liposome, not on the protein; also called bison NHA2∆N; source: reconstituted with egg PC and a biotinylated lipid
T1 sequence (A0A6P3HVI0 whole entry, stated change not applied, the tested form may be a part): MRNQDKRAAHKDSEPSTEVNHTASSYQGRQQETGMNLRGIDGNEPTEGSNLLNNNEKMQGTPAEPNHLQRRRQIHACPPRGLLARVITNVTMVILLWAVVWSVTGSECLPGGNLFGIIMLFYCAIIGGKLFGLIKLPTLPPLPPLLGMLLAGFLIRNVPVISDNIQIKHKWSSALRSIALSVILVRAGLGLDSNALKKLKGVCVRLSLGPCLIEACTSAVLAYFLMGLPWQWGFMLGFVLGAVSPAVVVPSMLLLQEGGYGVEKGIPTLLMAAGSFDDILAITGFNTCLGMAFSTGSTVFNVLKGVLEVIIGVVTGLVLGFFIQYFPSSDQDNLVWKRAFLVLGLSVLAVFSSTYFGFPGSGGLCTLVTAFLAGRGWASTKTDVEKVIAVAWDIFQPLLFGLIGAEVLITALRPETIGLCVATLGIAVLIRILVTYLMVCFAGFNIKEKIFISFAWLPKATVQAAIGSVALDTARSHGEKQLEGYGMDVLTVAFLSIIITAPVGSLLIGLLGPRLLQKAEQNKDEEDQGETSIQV
Kind of data set: ELISA; liposome ELISA: biotinylated proteoliposomes with bison NHA2ΔN immobilised on streptavidin-coated microplates; hybridoma clones.

B1: Homo sapiens NHA2∆N (residues 59–537), tags removed with TEV protease, in MSP1E2 nanodiscs (domain or fragment, human, UniProt Q86UD5 59-537, looked up)
chain: LQETPTEANHVQRLRQMLACPPHGLLDRVITNVTIIVLLWAVVWSITGSECLPGGNLFGIIILFYCAIIGGKLLGLIKLPTLPPLPSLLGMLLAGFLIRNIPVINDNVQIKHKWSSSLRSIALSIILVRAGLGLDSKALKKLKGVCVRLSMGPCIVEACTSALLAHYLLGLPWQWGFILGFVLGAVSPAVVVPSMLLLQGGGYGVEKGVPTLLMAAGSFDDILAITGFNTCLGIAFSTGSTVFNVLRGVLEVVIGVATGSVLGFFIQYFPSRDQDKLVCKRTFLVLGLSVLAVFSSVHFGFPGSGGLCTLVMAFLAGMGWTSEKAEVEKIIAVAWDIFQPLLFGLIGAEVSIASLRPETVGLCVATVGIAVLIRILTTFLMVCFAGFNLKEKIFISFAWLPKATVQAAIGSVALDTARSHGEKQLEDYGMDVLTVAFLSILITAPIGSLLIGLLGPRLLQKVEHQNKDEEVQGETSVQV
notes: Sodium/proton exchanger NHA2 (SLC9B2), Homo sapiens, residues 59-537; construct lacks the first 58 amino acids; The methods call the tags N-terminal, but the protein is named NHA2∆N-GFP; TEV protease was added after the nanodisc reconstitution and before the final SEC; also called human NHA2∆N; hsNHA2∆N; not shown: GFP, N-terminal, cleaved; TwinStrep, N-terminal, cleaved; His8, N-terminal, cleaved
What is called stoichiometry N is a count of units in the complex or per binding partner. As to B1, the “stoichiometry N” value in data set [1] was determined as 2.

B2: mouse monoclonal antibody against bison NHA2∆N (parent of the Fab) (antibody, V domains shown)
VH: EVQLQESGPELVKPGASVKMSCKASGYTFTNYFIHWVKQKPGQGLEWIGYINPYNDITKFNEKFKGKATLTSDKSSRTAYMELSSLTSEDSAVYYCARCDGYYRYYAMDYWGQGTSVTVSS
VL: DIVMTQTTSSLSASLGDRVTISCRASQDISNYLNWFQQKPDGTVKLLICYTSRLHSGVPSRFSGSGSGTDYSLTISNLEQEDIATYFCQQDSKHPWTFGGGTKLEIK
notes: Fab part as the heavy chain of m2 (in PDB 9QUB and 9QUW); as the light chain of m2 (in PDB 9QUB and 9QUW); Whole antibody of the selected hybridoma clone; also called antibody clone; source: mouse hybridoma (MRL/lpr mice immunised with bison NHA2 proteoliposomes)
For B2, the binding result in data set [2] is given as “binds”.
